For data set [1], the target named is T1, Rv0792c G80D G80D (Mycobacterium tuberculosis) (UniProt O86331).
T1 sequence: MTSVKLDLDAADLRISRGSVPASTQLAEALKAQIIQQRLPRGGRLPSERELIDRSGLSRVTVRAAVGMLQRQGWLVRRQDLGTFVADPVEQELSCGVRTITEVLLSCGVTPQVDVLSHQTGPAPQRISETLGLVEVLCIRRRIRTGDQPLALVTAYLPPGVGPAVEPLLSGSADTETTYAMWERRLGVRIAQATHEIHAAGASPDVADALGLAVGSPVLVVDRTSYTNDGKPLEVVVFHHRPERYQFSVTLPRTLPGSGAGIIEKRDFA
Description: ALISA (plate-immobilized protein).

Data set [2] addresses T2, Rv0792c R49A R49A (Mycobacterium tuberculosis) (UniProt O86331).
T2 sequence: T1 sequence with R49A, D80G
As to the kind of experiment: ALISA (plate-immobilized protein).

Where a chain is given by its changes, count along the chain named.

Drawing on article PMC9927256, “Structural and Functional Characterization of Rv0792c from Mycobacterium tuberculosis: Identifying Small Molecule Inhibitor against HutC Protein” (Microbiology Spectrum, 2022), this text covers Kd for 1 sequence.

For “TCTAGTCATTCGTCATAATCCCATCTGTTTCTTCCTCCTTCCGT [Rv0792c_2 aptamer (also Rv0729c_2)]”, the figures for the Kd in data set [1] and in data set [2] were 120 nM and 74 nM, respectively.
